This sample holds only a part of the variants without activity.
B1: TPR 5TU (parent)
chain: GGAUCUUCUCGAUCUAACAAAAAAGACAAAUCUGCCACAAAGCUUGAGAGCAUCUUCGGAUGCAGAGGCGGCAGCCUUCGGUGGCGCGAUAGCGCCAACGUUCUCAACUAUGACACGCAAAACGCGUGCUCCGUUGAAUGGAGUUUAUCAUG

Variants of: B1
Experiment: polymerase ribozyme fitness, log enrichment relative to wild type (log ratio); higher = more active; in vitro selection for triplet polymerase activity
Procedure, shortened: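 A heterodimeric triplet polymerase ribozyme had each of its subunits mutagenized by PCR into a library, which was transcribed. One round of in vitro selection, done in triplicate, annealed each library with a biotinylated primer, its partner subunit and triplets, then incubated it frozen at −7 °C before gel excision of extended constructs, streptavidin-bead capture and RT-PCR. Fitness is the logarithm of genotype enrichment relative to wild-type enrichment, based on Illumina sequencing of inputs and outputs and inverse-variance-weighted replicate averages. A base-2 logarithm is used, and genotypes were kept only with ≥10 input reads and ≥1 read per output.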

| Variant | polymerase ribozyme fitness (log ratio) |
| --- | --- |
| A19C A52G G88A A106G U139A | ≤ -4.2 |
| G50U U53A G58A A73G C79A C93A A107U C116G G136C | ≤ -4.2 |
| G50U A97U A147U | 0.621 |
| A28C C57U G59A U78G G86A A115U | ≤ -4.2 |
| A28U C32U A39U G58U C87U | ≤ -4.2 |
| A3U A29G A49C G92A G124U G140A | ≤ -4.2 |
| U31A U44A G68A G81A U104G C125A | ≤ -4.2 |
| A40U C79U A121G | -2.75 |
| C36U C87G | ≤ -4.2 |
| U61A C85U C87A C118G U134A | ≤ -4.2 |
| A47C C87U | -0.109 |
| U15C A37U C118U | -0.404 |
| C54U G59U | 0.271 |
| G68C C79A G83U U101A U104C C108G A142G | ≤ -4.2 |
| U31C A121C U134A | -1.76 |
| U45G C54U A110G | ≤ -4.2 |
| C35U C38G G86A G126A G136U | ≤ -4.2 |
| A24G C123U C132U U134A | ≤ -4.2 |
| A16C G59A C85G G126U | -2.76 |
| U9A G141A | -2.94 |
| A12U C18U A19G U56G A60U C76G C108U C114G | ≤ -4.2 |

| Variant | polymerase ribozyme fitness (log ratio) |
| --- | --- |
| C96G C99G C116A A147C | ≤ -4.2 |
| C27U G34A A66G A113C A121C | ≤ -4.2 |
| A26C A52U C54U G58A G71A G74C C87U C108A | ≤ -4.2 |
| A97C A98U U111G | -3.78 |
| G86U C125U | -2.02 |
| A21U C69U C96A C129A U135A G143U | -0.753 |
| U146G A150C | ≤ -4.2 |
| G34A C36A A137G | ≤ -4.2 |
| A22G C93A | -1.55 |
| U4A U6A C36U C57G G68U C79G A91C | ≤ -4.2 |
| G83A U101C | -2.23 |
| G50U A52G | -0.0259 |
| A19U A91G C93G U111A A137C | ≤ -4.2 |
| A20G A40C A41G A49C C76G G88A C96U | ≤ -4.2 |
| C27A A52G G128U C129U C131G A147U | ≤ -4.2 |
| C36U C51G U55A G67A C93U | ≤ -4.2 |
| G48A G86U C95U C123A | -2.89 |
| A41C U53G | -3.43 |
| G88C G100C A106G U146C | ≤ -4.2 |
| A16U A23G U148A | ≤ -4.2 |
| A24U G46C A73G C87U G92C | -3.37 |

| Variant | polymerase ribozyme fitness (log ratio) |
| --- | --- |
| U56A A73G C87G | ≤ -4.2 |
| C36U C76U C85G | -2.42 |
| G59C G88C A106U C108U | ≤ -4.2 |
| G58C G80C C95U | ≤ -4.2 |
| C54A C93U | -2.59 |
| G50C A66C A91U A106C A137C U148A | ≤ -4.2 |
| G25C U53A U61A C95G | -4.18 |
| A12U A28U U102A U139G U148G | -4.1 |
| U13A C14G A19U U53A U55A G86C U135A | ≤ -4.2 |
| A3C C87G | -3.29 |
| C79G C125U A142C U148C U151G | ≤ -4.2 |
| G94A U151A | ≤ -4.2 |
| C27A C36U C87G G126C C149U | ≤ -4.2 |
| U44G G67U A91U A115U A120C | ≤ -4.2 |
| A17G A49U G83U | -3.31 |
| U13G A40U A60C | ≤ -4.2 |
| A22C G59C G83A A89C | -1.16 |
| C35G G42A U130G C131A | -4.12 |
| A52C C54A A89G G117A | -3.55 |
| A22G G86C | -1.67 |
| G50U C99A | -1.59 |

| Variant | polymerase ribozyme fitness (log ratio) |
| --- | --- |
| A3G C27U G86A | -3.94 |
| G50C U56A U78A G83A G94U C95A | ≤ -4.2 |
| C57A A113U | -1.86 |
| G25U C69A U82G A89G C125U C149U | ≤ -4.2 |
| U7A C76U G94A C105U U151A | -3.84 |
| A12C C38A C93U | -1.62 |
| U7A G71A C96G | ≤ -4.2 |
| G58A C96A A97G A106C A119U | -1.42 |
| A40C C85A | -2.39 |
| A28U A73G | ≤ -4.2 |
| U7G A23G | ≤ -4.2 |
| U45A U102C C105U A119C G143A | ≤ -4.2 |
| A24U C43A A60C C96A A119U G126A | ≤ -4.2 |
| U4C A26U C69U | -2.9 |
| A49G C51G | -2.66 |
| G68C U104G C105G C118U G133C | ≤ -4.2 |
| U4C G86U | -1.9 |
| G83U A98C C123U C125U C129A | -3.47 |
| A97G A150G | -2.82 |
| C93G C108U C116G | ≤ -4.2 |
| C85A U144G | -0.777 |

From the RNAGym collection of RNA variant scans (doi:10.1073/pnas.2313332121)
